From the nanobody polyreactivity screen of Harvey et al. (2022)

Assay: yeast display, Sf9 membrane polyspecificity reagent, FACS + sequencing; frameworks hold sequencing errors
Procedure, shortened: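 After 36–48 hours of galactose induction, yeast (Saccharomyces cerevisiae BJ5465) displaying a synthetic nanobody library were stained at 4 °C for 1 hour with 10% biotinylated, detergent-solubilized Sf9 membrane reagent. Streptavidin microbeads enriched the stained cells before FACS sorting into low and high (top ~1%) gates on anti-HA and streptavidin fluorescence. Each clone's polyreactivity label reflects its gate of origin.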

Row | Sequence | polyreactivity (PSR sort gate)
1 | QVQLVESGGGLVQAGGSLRLSCAASGSTFYSNVMGWYRQAPGKERELVAAISQSGGRTFYADSVKGRFTISRDNAKNTVYLQMNSLKPEDTAVYYCNNVRAQPRNPYDYWGQGTQVTVSS | high polyreactivity
2 | QVQLVESGGGLVQAGGSLRLSCAASGSTFYSYAMGWYRQAPGKERELVAAISWDGGLTYYADSVKGRFTISRDNAKNTVYLQMNSLKPEDNAVYYCAAAYPTYRHYYWGQGTQVTVSS | low polyreactivity
3 | QVQLVESGGGLVQAGGSLRLSCAASGSTFYSYAMGWYRQAPGKERELVAAISWNGGSTYYADSVKGRFTISRDNAKNTVYLQMNRLKPEDTAVYYCAALRYVHGYDYWGQGTQVTVSS | high polyreactivity
4 | QVQLVESGGGLVQAGGSLRLSCAASGSTFYSYAMGWYRQAPGKERELVAAISWSGGSTYYADSVKGRFTISRDNAKNTVYLQMNSLKPEDTAVYYCAATRTRGYDGYGMYYWGQGTQVTVSS | high polyreactivity
5 | QVQLVESGGGLVQAGGSLRLSCAASGSTFYSYAMGWYRQAPGKERELVAAITIISGSTYYADSVKGRFTISRDNAKNTVYLQMNSLKPEDTAVYYCAADSYYSFVPLDEYWGQGTQVTVSS | high polyreactivity
6 | QVQLVESGGGLVQAGGSLRLSCAASGSTFYSYAMGWYRQAPGKEREMVAAITRGGSTNYADSVKGRFTISRDNAKNTVYLQMNSLKPDDTAVYYCAKSKYTGTAFGGKKTWFNYWGQGTQVTVSS | high polyreactivity
7 | QVQLVESGGGLVQAGGSLRLSCAASGSTFYSYTMGWYRQAPGKERELVASITRGGSTYYADSVKGRFTISRDNAKNTVYLQLNSLKPEDTAVYYCAARGRYSIARYDYWGQGTQVTVSS | high polyreactivity
8 | QVQLVESGGGLVQAGGSLRLSCAASGSTFYTHAMGWYRQAPGKERELVAAISASVGSTYYADSVKGRFTISRDNAKNTVYLQMNSLKPEDTAVYYCAADVWASRRYDYWGQGTQVTVSS | low polyreactivity
9 | QVQLVESGGGLVQAGGSLRLSCAASGSTFYTNAMGWYRQAPGKERELVAAISGSGGSTYYADSVKGRFTISRDNAKNTVYLQMNSLKPEDTAVYYCAARSRYYDTRFDYWGQGTQVTVSS | low polyreactivity
10 | QVQLVESGGGLVQAGGSLRLSCAASGSTFYTYALGWYRQAPGKERELDAAITYNGGSTYYADSVKGRFTISRDNAKNTVYLQMNSLKPEDTAVYYCARTIYLGSRVNGYWRYDYWGQGTQVTVSS | high polyreactivity
11 | QVQLVESGGGLVQAGGSLRLSCAASGSTFYTYAMGWYRQAPGKECELVAAISNRGGSTRYADSVKGRFTISRDNAKNTVYLQMNSLKPEDTAVYYCAAQRIRRGWYGYWGPGTQVTVSS | high polyreactivity
12 | QVQLVESGGGLVQAGGSLRLSCAASGSTFYTYAMGWYRQAPGKERELVAAISSGGGTTYADSVKGRFTISRDNAKNTVYLQMNSLKPEDTAVYYCAAVTRDYRNDRRRQRYYYWGQGTQVTVSS | high polyreactivity
13 | QVQLVESGGGLVQAGGSLRLSCAASGSTFYTYAMGWYRQAPGKERELVAAISWSGGSTYYADSVKGRFTISRDNAKNTVYLQMNSLKPEDTAVYYCAADRPYAGRYWKGYHSALYDYWGQGTQVTVSS | low polyreactivity
14 | QVQLVESGGGLVQAGGSLRLSCAASGSTFYTYAMGWYRQAPGKERELVAAISYRGGSTYYADSVKGRFTISRDNAKNTVYLQMNSLKPEDTAVYYCNVDGVVVGTKRGGYDYWGQGTQVTVSS | low polyreactivity
15 | QVQLVESGGGLVQAGGSLRLSCAASGSTFYTYVMGGYRQAPGKERELVAAITRSGGITYYADSVKGRFTISRDNAKYTVYLQMNSLKPEDTAVYYCAKDDQTASGFDYWGQGTQVTVSS | low polyreactivity
16 | QVQLVESGGGLVQAGGSLRLSCAASGSTFYTYVMGWYRQAPGKERELVAAISSGGGNTYYADTVTGRFTISRDHGKNTVYLQMNSLKPEDTAVYYCAAETFRWSDYDYWGQGTQVTVSS | high polyreactivity

Row | Sequence | polyreactivity (PSR sort gate)
17 | QVQLVESGGGLVQAGGSLRLSCAASGSTFYVNAMGWYRQAPGKERELVASISSSSGSTYYADSVKGRFTISRDNAKNTVYLQMNSLKPEDTAVYYCAAEVGIFIWFDYWGQGTQVTVSS | low polyreactivity
18 | QVQLVESGGGLVQAGGSLRLSCAASGSTFYVNAMGWYRQAPGKERELVAVISTGGSTYYADSVKGRFTISRDNAKNTVYLQMNSLKPEDTAVYYCAKRDLPDRSGTPNVIPFDYWGQGSQVTVSS | low polyreactivity
19 | QVQLVESGGGLVQAGGSLRLSCAASGSTFYVNDMGRYRQAPGNERELVAAITWGVGDTYYADSVKGRFTISRDNAKNTVYLQMNSQKPEDTAVYYCAADTSYYYAYTQMEYWGQGTQVTVSS | low polyreactivity
20 | QVQLVESGGGLVQAGGSLRLSCAASGSTFYVNSMGWYRQAPGKERELVAGISFSDGSTYYADSVKGRFTISRDNAKNTVYLQMNSLKPEDTAVYYCATVGALDIYYGYGYWVQGTQVTVSS | low polyreactivity
21 | QVQLVESGGGLVQAGGSLRLSCAASGSTFYVNTMGWYRQAPGKERELVAAINWRGGSTYYADSVKGRFTISRDNAKNTVYLQMNSLKPEDTAVYYCAAYGYYRYVTAYIYDMDYWGQGTQVTVSS | low polyreactivity
22 | QVQLVESGGGLVQAGGSLRLSCAASGSTFYVNTMGWYRQAPGKERELVAAISGSGGSTYYADSVKGRFTISRDNAKNTVYLQMNSLKPEDTAVHYCAARSRYGYITFDYWGQGTQVTVSS | high polyreactivity
23 | QVQLVESGGGLVQAGGSLRLSCAASGSTFYVYAMGWYRQAPGKARELVAAIRSGGSTNYADSVKGRFTISRDNAKNTVYFQLNSLKPEDTAVYYCNADTWLYRYDYWGQGTQVTVSS | low polyreactivity
24 | QVQLVESGGGLVQAGGSLRLSCAASGSTFYVYAMGWYRQAPGKERELVAAIDSGDSTNYADSVKGRFTISRDNAKNTVYLQMNSLKPEDTAVYYCAADRTVYPFNYWGQGTQVTVSS | low polyreactivity
25 | QVQLVESGGGLVQAGGSLRLSCAASGSTFYVYAMGWYRQAPGKERELVAAISSSGARTYYADSVKGRFTISRDNAKNTVYLQMNSLKPEDTAVYYCAARRYYKFYYWGQGTQVTVSS | high polyreactivity
26 | QVQLVESGGGLVQAGGSLRLSCAASGSTFYVYAMGWYRQAPGKERELVAAITTGGSTYYADSVKGRFTISRDNAKNTVYLQMNSLKPEDTAVYYCAADDPDPYDVPSYDYWGHGTQVTVSS | low polyreactivity
27 | QVQLVESGGGLVQAGGSLRLSCAASGSTFYVYVMGWYRQAPGKERELVAAISRSGGRTYYADSVKGRFTISRDNAKNTVYLQMNSLKPEDTSGYYCNARGSRRGGPGYEYWGQGTQVTVSS | high polyreactivity
28 | QVQLVESGGGLVQAGGSLRLSCAASGSTFYYFALGWYRQAPGKERELVAAISSGGTTNYADSVKGRFTISRDNAKNTVYLQINSLKPEDTAVYYCAARFRRVRFTHYDYWGQGTQVTVSS | high polyreactivity
29 | QVQLVESGGGLVQAGGSLRLSCAASGSTFYYNAMGWYRQAPGKERELVAGISGGGSTNYADSVKGRFTISRDNAKNTVYLQMNSLKPEDTAVYYCAARERYRGAIGYDYWGKGTQVTVSS | low polyreactivity
30 | QVQLVESGGGLVQAGGSLRLSCAASGSTFYYNAMRWYRQAPGKERELVAAITGSGDSTYYADSVKGRFTISRDNAKNTVYLQMNSLKPEDTAVYYCAADTYSTYWGQGTQVTVSS | low polyreactivity
31 | QVQLVESGGGLVQAGGSLRLSCAASGSTFYYNGMGWYRQAPGKERELVAVISISGGSTYYADSVKGRFTISRDNAKNTVYLQMNSLKPEDTAVYYCATSYVGRSAYRSYGARGGYWGQGTQVTVSS | low polyreactivity
32 | QVQLVESGGGLVQAGGSLRLSCAASGSTFYYYAMGWYRPAPGKEREFVASISSRGTSTYYADSVKGRFTISRDNAKNTVYIQMISLKPEDTAVDYGAARVWGPTRAYDYWGQGTQVTVSS | high polyreactivity
